In test [1] the target is CD8 on CD8 positive cells in human peripheral blood (human) (UniProt P01732). Nature of the test: specificity control, cells recovered after the column (not adsorbed); flow cytometry; mean ± SD of 3. (In general: Flow cytometry measures light scatter and fluorescence of single cells or particles in a stream.)
Test [2] concerns the target CD2 on CD2 positive cells in human peripheral blood (human) (UniProt P06729). Nature of the test: specificity control, cells recovered after the column (not adsorbed), with biotin block; flow cytometry; mean ± SD of 3.
Test [3] has the same target. The experiment in a line: specificity control, cells recovered after the column (not adsorbed), without biotin block; flow cytometry; mean ± SD of 3.

CD2 on CD2 positive cells in human peripheral blood (human), sequence (P06729 25-351): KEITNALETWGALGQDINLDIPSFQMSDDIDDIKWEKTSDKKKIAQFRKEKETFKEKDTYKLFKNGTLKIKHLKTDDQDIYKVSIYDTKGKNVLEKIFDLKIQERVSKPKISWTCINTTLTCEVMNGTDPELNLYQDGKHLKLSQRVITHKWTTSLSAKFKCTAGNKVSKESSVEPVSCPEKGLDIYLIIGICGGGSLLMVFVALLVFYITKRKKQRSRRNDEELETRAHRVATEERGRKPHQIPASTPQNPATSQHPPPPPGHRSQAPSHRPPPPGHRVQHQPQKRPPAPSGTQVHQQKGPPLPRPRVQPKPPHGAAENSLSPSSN
CD8 on CD8 positive cells in human peripheral blood (human), sequence (P01732 22-235): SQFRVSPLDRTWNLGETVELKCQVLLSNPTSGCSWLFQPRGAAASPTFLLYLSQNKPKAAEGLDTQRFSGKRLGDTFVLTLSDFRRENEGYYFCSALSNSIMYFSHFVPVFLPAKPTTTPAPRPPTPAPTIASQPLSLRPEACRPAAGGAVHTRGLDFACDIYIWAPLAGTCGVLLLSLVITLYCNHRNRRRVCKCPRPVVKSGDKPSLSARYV

In turn, Leu3a scFv-Normal returned a CD8 positive cell recovery rate (%) in test [1] of 78.9%. 4G7 scFv-SA: the CD2 positive cell recovery rate (%) in test [2] amounted to 78.7%; in test [3], 76.4%.

(Values after US20100069815A1.)
